# Source: patent US12194082B2, “Compositions and methods for treatment of homocystinuria” (THE REGENTS OF THE UNIVERSITY OF COLORADO, priority 2016, dated 2025)
# What was measured:
# [1] = test system: I278T −/− homozygous mice; assay: Facial alopecia in I278T mice; type: in vivo, mouse; conditions: 3 times per week, start W24-W28, up to about 1 year
# Method: 3 W old mice not showing any signs of facial alopecia were split into 2 groups. The first group (n=3 males) was injected with 7.5 mg/kg three times per week with 200MA0B PEG-htCBS C15S for a period of 6 weeks. Physical look was recorded before the experiment and monitored weekly, then bi-weekly after the 6 W injection regimen. Metabolite levels were checked before the experiment and 24 hours after the last injection, i.e. after the 6 W injection regimen.
# The second group (n=3; 2 males, 1 female) was continuously injected with 7.5 mg/kg of 200MA0B PEG-htCBS C15S administered subcutaneously from 3 W of age until 41 weeks of age. Weight was initially monitored weekly. Physical look was recorded before the experiment and was monitored weekly or bi-weekly after the initial 6 W injection regimen. Metabolite levels were checked before the experiment and 24 hours after the last injection of initial 6 W injection regiment and then followed weekly or bi-weekly.
# The I278T mice, which were at least 120D (W17) old and had visible, fully developed facial alopecia, were split into 2 groups. […] Metabolite levels were determined prior to the treatment initiation and measured during the study 24 hours after the injection, and weight and physical look were initially monitored weekly, and later bi-weekly.
# [2] = CBS enzyme activity assay, specific activity of pure enzyme; type: biochemical; conditions: lots used in osmotic pumps
# Method: CBS activity was determined by a radioisotope assay with C^14-labeled serine as a substrate. Ten μl (total 490 ng) of pure htCBS in dilution buffer (0.1 M Tris-HCl pH=8.6, 1 mM DTT, 10 μM PLP, 0.5 mg/ml BSA) or 10 μl of plasma were added to 85 μl of reaction mixture containing 0.1 M Tris-HCl pH=8.6, 10 mM L-serine, 0.5 mM PLP, 0.5 mg/ml BSA and 0.3 μCi (for pure enzyme) or 0.45 μCi (for plasma) of L-[C^14(U)]-Serine. Samples were incubated for 5 min at 37° C. and reaction was initiated by addition of 5 μl of 0.2 M Hcy (10 mM final concentration). Following 30 min of incubation at 37° C., a 20 μl aliquot of the assay mixture was applied onto a grade 3 CHR Whatman (NJ, USA) paper. Assay initiation and sampling of the resulting mixture were staggered so that each reaction time was 30 minutes. Descending paper chromatography was used to isolate the radioactive product (Cth) from a labeled substrate (Ser). The C^14-cystathionine formed in the reaction was separated from C^14-serine by an overnight descending paper chromatography in 2-propanol/formic acid/H2O (75:5.7:18.9 v/v). Radioactivity in the area of the marker cystathionine (detected by staining the marker lane with ninhydrin) was determined by cutting the chromatogram into strips that were submerged in 5 ml of Opti-fluor scintillation cocktail (PerkinElmer, MA, USA) and counted in a Beckman LS-3801 scintillation counter. An enzyme-free sample was used as a blank to monitor the background radioactivity that was then subtracted from each sample. For pure enzyme, specific activity values are expressed as enzyme units (the amount of enzyme that produces 1 μmol of cystathionine/hour) per mg of CBS, and for plasma samples as units per μl plasma.
# [3] = Radiometric CBS activity assay of monkey plasma samples; type: in vivo, cynomolgus monkey
# Description: Tables 12-14 below show the comparison of C15S/ME-200GS specific activity determined by LC/MS/MS using D,L-homocysteine M+4 as a substrate and by radiometric assay using L-[…] as a substrate. The enzyme's specific activity is presented in mU/μl. The “n.d.” stands for “not determined”.
# [4] = test system: homocysteine, cystathionine, and cysteine; assay: Long-term administration of PEGylated htCBS C15S conjugates in HO mice: plasma metabolites; type: in vivo; conditions: 7.5 mg/kg/day SC, 5 daily injections per bout
# Method: In one set of experiments, htCBS C15S PEGylated with either ME-200MA0B, ME-200GS, GL4-400MA, or ME-400MA was evaluated. Six groups of HO mice were used to conduct these studies: two groups received 200MA0B PEG-htCBS C15S (Groups 1 and 3), one group received 20NHS PEG-htCBS C15S (Group 4), one group received GL4-400MA PEG-htCBS C15S (Group 5), and two groups received 400MA PEG-htCBS C15S (Group 6 and 7). Both male and female HO mice were used (total n=6 to 8 mice per group) in these studies.
# For Group 1, the mice received 2 bouts of 5 daily subcutaneous injections of 200MA0B PEG-htCBS C15S on days 1, 2, 3, 4, and 5 (week 1) and days 15, 16, 17, 18, and 19 (week 3). The dose for this experiment was 5 mg/kg/day. A saline control group (Group 2) was included in this experiment. All other groups received 3 bouts of 5 daily subcutaneous injections on days 1, 2, 3, 4, and 5 (week 1); days 15, 16, 17, 18, and 19 (week 3); and days 29, 30, 31, 32 and 33 (week 5). The dose for these experiments was 7.5 mg/kg/day.
# In a separate set of experiments, htCBS C15S PEGylated with ME-200MA0B or ME050GS was evaluated. Two groups of male and female HO mice (1M/5F) received 3 bouts of 5 daily subcutaneous injections of either 200MA0B PEG-htCBS C15S (Group 8) or 050GS PEG-htCBS (Group 9) on days 1, 2, 3, 4, and 5 (week 1); days 15, 16, 17, 18, and 19 (week 3); and days 29, 30, 31, 32 and 33 (week 5). The dose was 7.5 mg/kg/day.
# In all sets of experiments, each 5-day dosing cycle was followed by a 10-day “washout period”. Blood was sampled using a submandibular lancet on Monday, Wednesday, and Friday of the dosing weeks (1, 3, and 5) and on the first day (Monday) of each 10-day washout period. All blood sampling procedures and subcutaneous injections were conducted at 3 P.M. to avoid artifacts due to diurnal variations. On days where both blood sampling and injection were conducted the blood sampling procedure was conducted prior to enzyme administration.
# The pharmacodynamic response in HO mice to each PEGylated htCBS C15S conjugate was assessed for each bout of dosing by quantitating plasma levels of metabolites homocysteine, cystathionine, and cysteine, which are associated with the transsulfuration pathway, at baseline and after treatment. Quantification was performed by stable-isotope-dilution liquid chromatography mass spectrometry (LC/MS) as described in Example 1. The maximal percent change of homocysteine, cystathionine, and cysteine was calculated compared to baseline values for each dose week.
substance,measurement,setting,value
20NHS PEG-htCBS C15S: htCBS C15S PEGylated with ME-200GS PEG (20 kDa linear NHS ester-activated PEG),animals responding (reversal of fully developed facial alopecia),[1],4 out of 4
same,specific activity of administered enzyme,[2],673.9 ± 13.2 U/mg
same,specific activity of administered enzyme,[2]; listed as ME-200GS PEGylated htCBS C15S,623.2 ± 16.4 U/mg
same,"specific activity in plasma, Radiometric assay","[3]; single IV 2 mg/kg, 0.083 h",95.741 mU/μl
same,"specific activity in plasma, Radiometric assay","[3]; single IV 2 mg/kg, 0.167 h",90.049 mU/μl
same,"specific activity in plasma, Radiometric assay","[3]; single IV 2 mg/kg, 0.25 h",88.891 mU/μl
same,"specific activity in plasma, Radiometric assay","[3]; single IV 2 mg/kg, 0.5 h",85.342 mU/μl
same,"specific activity in plasma, Radiometric assay","[3]; single IV 2 mg/kg, 1 h",80.992 mU/μl
same,"specific activity in plasma, Radiometric assay","[3]; single IV 2 mg/kg, 2 h",78.984 mU/μl
same,"specific activity in plasma, Radiometric assay","[3]; single IV 2 mg/kg, 4 h",77.809 mU/μl
same,"specific activity in plasma, Radiometric assay","[3]; single IV 2 mg/kg, 8 h",70.357 mU/μl
same,"specific activity in plasma, Radiometric assay","[3]; single IV 2 mg/kg, 24 h",55.865 mU/μl
same,"specific activity in plasma, Radiometric assay","[3]; single IV 2 mg/kg, 72 h",31.601 mU/μl
same,"specific activity in plasma, Radiometric assay","[3]; single IV 2 mg/kg, 120 h",18.908 mU/μl
same,"specific activity in plasma, Radiometric assay","[3]; single IV 2 mg/kg, 192 h",9.182 mU/μl
same,"specific activity in plasma, Radiometric assay","[3]; single SC 2 mg/kg, 1 h",2.842 mU/μl
same,"specific activity in plasma, Radiometric assay","[3]; single SC 2 mg/kg, 2 h",5.801 mU/μl
same,"specific activity in plasma, Radiometric assay","[3]; single SC 2 mg/kg, 4 h",11.207 mU/μl
same,"specific activity in plasma, Radiometric assay","[3]; single SC 2 mg/kg, 8 h",22.164 mU/μl
same,"specific activity in plasma, Radiometric assay","[3]; single SC 2 mg/kg, 24 h",40.293 mU/μl
same,"specific activity in plasma, Radiometric assay","[3]; single SC 2 mg/kg, 48 h",36.658 mU/μl
same,"specific activity in plasma, Radiometric assay","[3]; single SC 2 mg/kg, 72 h",30.670 mU/μl
same,"specific activity in plasma, Radiometric assay","[3]; single SC 2 mg/kg, 96 h",23.536 mU/μl
same,"specific activity in plasma, Radiometric assay","[3]; single SC 2 mg/kg, 120 h",18.608 mU/μl
same,"specific activity in plasma, Radiometric assay","[3]; single SC 2 mg/kg, 192 h",9.496 mU/μl
same,"specific activity in plasma, Radiometric assay","[3]; single SC 2 mg/kg, 240 h",5.963 mU/μl
same,"specific activity in plasma, Radiometric assay","[3]; single SC 2 mg/kg, 336 h",2.441 mU/μl
same,"specific activity in plasma, Radiometric assay","[3]; single SC 6 mg/kg, 1 h",3.739 mU/μl
same,"specific activity in plasma, Radiometric assay","[3]; single SC 6 mg/kg, 2 h",9.180 mU/μl
same,"specific activity in plasma, Radiometric assay","[3]; single SC 6 mg/kg, 4 h",22.263 mU/μl
same,"specific activity in plasma, Radiometric assay","[3]; single SC 6 mg/kg, 8 h",50.194 mU/μl
same,"specific activity in plasma, Radiometric assay","[3]; single SC 6 mg/kg, 24 h",111.081 mU/μl
same,"specific activity in plasma, Radiometric assay","[3]; single SC 6 mg/kg, 48 h",109.292 mU/μl
same,"specific activity in plasma, Radiometric assay","[3]; single SC 6 mg/kg, 72 h",95.722 mU/μl
same,"specific activity in plasma, Radiometric assay","[3]; single SC 6 mg/kg, 96 h",73.072 mU/μl
same,"specific activity in plasma, Radiometric assay","[3]; single SC 6 mg/kg, 120 h",56.427 mU/μl
same,"specific activity in plasma, Radiometric assay","[3]; single SC 6 mg/kg, 192 h",31.513 mU/μl
same,"specific activity in plasma, Radiometric assay","[3]; single SC 6 mg/kg, 240 h",19.203 mU/μl
same,"specific activity in plasma, Radiometric assay","[3]; single SC 6 mg/kg, 336 h",5.807 mU/μl
same,"cystathionine, Percent Increase at Peak, Week 1",[4],676%
same,"cystathionine, Percent Increase at Peak, Week 3",[4],492%
same,"cystathionine, Percent Increase at Peak, Week 5",[4],432%
same,"cysteine, Percent increase at Peak, Week 1",[4],59%
same,"cysteine, Percent increase at Peak, Week 3",[4],61%
same,"cysteine, Percent increase at Peak, Week 5",[4],51%
same,"total Hcy, Percent Decrease at Trough, Week 1",[4],77%
same,"total Hcy, Percent Decrease at Trough, Week 3",[4],70%
same,"total Hcy, Percent Decrease at Trough, Week 5",[4],66%
same,"total Hcy, Percent Decrease at Trough, Week 1",[4]; listed as ME-200GS,77%
same,"total Hcy, Percent Decrease at Trough, Week 3",[4]; listed as ME-200GS,70%
same,"total Hcy, Percent Decrease at Trough, Week 5",[4]; listed as ME-200GS,66%
